# ± gives the half width of the 95% confidence interval.
# Legend:
# [1] = folding stability dG unfold (combined trypsin and chymotrypsin); higher = more stable
# Procedure, shortened: (§1)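 Mini-proteins designed to be under 80 residues and free of cysteine were carried in a PA-tagged cDNA display construct and digested with trypsin and with chymotrypsin. Each protease was applied at 11 threefold-diluted concentrations, alongside a no-protease condition, before sequencing. K50 came from Bayesian fitting of the sequencing counts, and unfolding free energy was obtained by comparing it with a sequence-predicted unfolded-state K50 and a shared folded-state K50, for each protease separately or for both together. Designs were retained only if their AlphaFold2 dimer inter-PAE exceeded 15.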
# [2] = folding stability dG unfold from chymotrypsin proteolysis; higher = more stable
# Procedure, shortened: as §1
# [3] = folding stability dG unfold from trypsin proteolysis; higher = more stable
# Procedure, shortened: as §1
Sequence,folding stability dG unfold [1],folding stability dG unfold [2],folding stability dG unfold [3]
SAGGSSMRKLIIIGPEGVTLERPIGPERTVEDVKAEWEAIGNVKFEEYPETGEVVVYLPEEALKEKSAGGSA [r2_164_JUSTAS],1.22 ± 0.08 kcal/mol,1.47 ± 0.029 kcal/mol,0.601 ± 0.054 kcal/mol
SAGGSSPPGVKVEVTVEVTYIPSKGGYKLTFYRPGGEKVDTKELEKDKLEEAKEELKAKGFDVVKIKKSAGG [r13_765_JUSTAS],0.347 ± 0.21 kcal/mol,0.882 ± 0.18 kcal/mol,-0.402 ± 0.41 kcal/mol
SAGGSSSMVTRTPSTSTVTVKRGNGPVTVSLPTTVVTRPDGSRTLETTVDTKDPAGNPAATTVTPAPSAGGS [r16_581_JUSTAS],0.643 ± 0.093 kcal/mol,0.98 ± 0.048 kcal/mol,0.0362 ± 0.1 kcal/mol
SAGGSSSSTSTRIDPTTGEWVTSTSSFPVPPAPPYIEVRLDVPPEEAEALREKLLAEHPDLPVRLEASAGGS [r8_437_JUSTAS],0.636 ± 0.072 kcal/mol,0.74 ± 0.029 kcal/mol,0.336 ± 0.023 kcal/mol
SAGGSSSTPVSSSTFTTPDGVTVSVTTTLEPDASGNPYTVTTETFPDGTVTTTTYRNGETQTTTVASAGGSA [r2_182_JUSTAS],1.34 ± 0.088 kcal/mol,1.33 ± 0.11 kcal/mol,1.28 ± 0.041 kcal/mol
SAGGSSSVGVDSSDPEKTKEAILKAYGTDAEPVFTTDPATGRLTITVPETGDVHTVTAGTRTETAASAGGSA [r2_205_JUSTAS],0.801 ± 0.085 kcal/mol,0.224 ± 0.068 kcal/mol,1.27 ± 0.042 kcal/mol
SAGGSSVSSVTLLSSETYTEGEKTFKRTTYLVPLPDGTTAIVTTEETTPPENPPEVEVSSSTTPLPGSAGGS [r16_121_JUSTAS],1.63 ± 0.086 kcal/mol,1.78 ± 0.093 kcal/mol,1.25 ± 0.044 kcal/mol
SAGGSTTVTIETYESEKFPNGSFKTSTKKIVITNTLSPDEELTLPNGKKIPASLSAEEIAEAILKSESAGGS [r16_440_JUSTAS],0.151 ± 0.098 kcal/mol,0.522 ± 0.11 kcal/mol,-0.849 ± 0.23 kcal/mol
SAGGSTVKTITLEFTRDPSTGAITEAEAEIERLKNDPNWEVTDPTITPLPDGTVKVPAKVKIPSNANLSAGG [r13_428_JUSTAS],0.075 ± 0.23 kcal/mol,0.12 ± 0.27 kcal/mol,0.116 ± 0.2 kcal/mol
SAGGSTVTVTVRRRVRVEVNGELREFEVEVTVTVRLPPPPPVIELPPEQVTRIEWDEETQELRVEVDSAGGS [r8_28_TrROS_Hall],3.28 ± 0.21 kcal/mol,3.33 ± 0.063 kcal/mol,2.98 ± 0.21 kcal/mol
SAGGSVEFEETITDPLKSLEEAKALAEEIEAELKAKGYKVTVTVTVVPPGSVTATITVTTDPAKGKKASAGG [r13_697_JUSTAS],0.82 ± 0.22 kcal/mol,1.34 ± 0.072 kcal/mol,0.822 ± 0.063 kcal/mol
SAGGSVEKKLLEYDPATGNRLVEVTAKAKPEVVEELIAKGYDPSTISPLGDGTVRALLTIPPDEKLDSAGGS [r16_755_JUSTAS],-0.248 ± 0.21 kcal/mol,-0.332 ± 0.25 kcal/mol,-0.295 ± 0.25 kcal/mol
SAGGSVEVEPLPNGLLRVTTVFSESKTPILRKLTYKDENGKPLGTKLELLPEEVEVESVTELLPPELLSAGG [r13_848_JUSTAS],0.256 ± 0.079 kcal/mol,0.606 ± 0.11 kcal/mol,-1.07 ± 0.29 kcal/mol
SAGGSVITEEEKEKIKKEYPNLDIKLKALKPGETITYPNGTKVYGSPNGFLVEITNPDGTKTVIKESAGGSA [r2_166_JUSTAS],0.604 ± 0.11 kcal/mol,0.498 ± 0.16 kcal/mol,0.638 ± 0.026 kcal/mol
SAGGSVIVKLPNGKILEVSPSELAGYKPGAAVKFPDGTAQVVNPETDEVIDIPIDSPEKIIEAIKKAASAGG [r13_962_TrMRF],0.163 ± 0.24 kcal/mol,0.365 ± 0.077 kcal/mol,0.0192 ± 0.1 kcal/mol
SAGGSVVPLPLDETVELTFDGTTATFTALPDGTATATFTGPDSTARATFPPDGAVTVTVPGAGTTAASAGGS [r16_725_JUSTAS],-0.404 ± 0.19 kcal/mol,-0.268 ± 0.19 kcal/mol,-1.18 ± 0.62 kcal/mol
SAGGSVVTIVEVVPEDKKIVIKAPGNPITIPLENIKEIKLIPEKGYLEITINNTTIKVPLNNPNSISAGGSA [r2_48_JUSTAS],0.779 ± 0.071 kcal/mol,1.09 ± 0.058 kcal/mol,0.308 ± 0.051 kcal/mol
SAGGSWLPPGMWIISISIKWEMREMTFSPNGQPEMEMRLEIDIQVIKIPPPPPPPKEDAKNPNGKWSAGGSA [r2_495_TrROS],1.66 ± 0.35 kcal/mol,2.22 ± 0.3 kcal/mol,0.946 ± 0.15 kcal/mol
SAGGSYTVEELPPGGILRITFTVPKSRPAEVPLELKAPDGTPVDVESYSITPVGDTNVITYTIKVPLSAGGS [r16_499_JUSTAS],1.85 ± 0.11 kcal/mol,1.81 ± 0.15 kcal/mol,1.57 ± 0.049 kcal/mol
SAGGTATLVIPRIYKGSPEEAARAVQEIADALAALGYDVEVDATVYPVGDYLVVTVTVTVTAPPDSPLASAG [r5_217_TrMRF],2.63 ± 0.15 kcal/mol,2.82 ± 0.046 kcal/mol,2.62 ± 0.099 kcal/mol
SAGGTIIINFTWSDIKDILDYLKDNKDWKITIWMGNKPVEYPLDDLEEILQNIPMPPGQPFWIEITPSAGGS [r16_377_TrROS],4.36 ± 0.17 kcal/mol,4.32 ± 0.14 kcal/mol,3.38 ± 0.26 kcal/mol

Sequence,folding stability dG unfold [1],folding stability dG unfold [2],folding stability dG unfold [3]
SAGGTLEEFARDLAKELAKENGGKNVPFEIEIPVKMEWYPSPDGDPEPIMTHPMRIRIQFQIPPGQPSAGGS [r16_156_TrROS],1.08 ± 0.15 kcal/mol,1.53 ± 0.14 kcal/mol,0.389 ± 0.11 kcal/mol
SAGGTLRNMPVEQIAKRLQNHGYEIKVENIRHNEDRVRIKIEVERRNKNGKPHEEVKISIEIPDPDDFSAGG [r13_566_TrROS],0.559 ± 0.27 kcal/mol,0.403 ± 0.15 kcal/mol,0.461 ± 0.23 kcal/mol
SAGGTLTLLVEVDGLLVRVTAEVRLVYDPETDELTLEVRVRVEVRPLPAPPPPLVVVRDADGRLRLLSAGGS [r8_46_TrROS_Hall],2.22 ± 0.08 kcal/mol,2.71 ± 0.042 kcal/mol,1.03 ± 0.095 kcal/mol
SAGGTMTIEAWVKYKDMTPEEMREQAKEIAENIMNMMRQRGFPIKKIEVDVEQDPGNGWVQVTIEIEFSAGG [r13_212_TrROS],4.24 ± 0.18 kcal/mol,4.62 ± 0.13 kcal/mol,3.45 ± 0.15 kcal/mol
SAGGTPVVVPATITVPVPFGAPARVTIFTPEDGHVLALIELPDGAVLVATFDPTTGELHVAPYADAASAGGS [r16_735_TrMRF],2.23 ± 0.14 kcal/mol,2.78 ± 0.06 kcal/mol,1.19 ± 0.061 kcal/mol
SAGGTVTIFIPGMSLDQIKKFIKFFRDNPDRPVTIHMPNGYMIEIDPKGKIDNIKVRRMPPMPEDDQSAGGS [r16_248_TrROS],2.53 ± 0.12 kcal/mol,2.93 ± 0.046 kcal/mol,1.52 ± 0.036 kcal/mol
SAGGVEEAREALEEAGFEIVDVDEETGTVTVRNEETEETITVRVEAPAPPPVEVEEEVEVEEEEEEESAGGS [r16_197_TrROS_Hall],1.34 ± 0.096 kcal/mol,1.48 ± 0.12 kcal/mol,1.14 ± 0.089 kcal/mol
SAGGVEEIVEKLPEEAEEVEITSEPHPLPGSTLTKYTIKAKNSATGKTKTYEVTVLYDPEGNVLEVLLSAGG [r13_358_JUSTAS],2.22 ± 0.19 kcal/mol,2.74 ± 0.082 kcal/mol,1.7 ± 0.061 kcal/mol
SAGGVITIRIPGIDNRNPETMRSKAVEIADRLRDHGVTVTDVEWDPDQGSMTITVMLPGQSLEDILKSAGGS [r8_344_TrROS],2.42 ± 0.084 kcal/mol,2.69 ± 0.051 kcal/mol,1.89 ± 0.062 kcal/mol
SAGGVLLEFPDGTTVEITVTTSTSTFKDPTTDKTVTKSSTTITVTRKTPDPVVTPVPASEAQRIFDSTSAGG [r13_809_JUSTAS],2.47 ± 0.21 kcal/mol,2.96 ± 0.2 kcal/mol,2.13 ± 0.079 kcal/mol
SAGGVLTRVEIEIVEPGTGVPKRFEALLETGDDGTITLLLPDGTVIELPPTANIKILSEEVLSPSELSAGGS [r16_223_JUSTAS],1.37 ± 0.21 kcal/mol,0.0233 ± 0.17 kcal/mol,2.02 ± 0.1 kcal/mol
SAGGVPLLSAELLTTDETGNRTYRLVYYDPSTGKVYEVVVSQPFPTGDFNPFLFTASSLEEALELVTSSAGG [r13_26_TrMRF],2.7 ± 0.038 kcal/mol,2.81 ± 0.038 kcal/mol,2.61 ± 0.057 kcal/mol
SAGGWEIVGSITIEHPNRPIIFPVFRDPEEGNVWVSIYRMDPENGKWQPIGVVPFPKGDAEDALDDISAGGS [r8_423_TrROS],1.53 ± 0.16 kcal/mol,1.86 ± 0.11 kcal/mol,1.03 ± 0.054 kcal/mol
SAGGWITPELIEEIAKTIAEENPENGKEVPIEVVIPFPNSVIKIEIEFDPSNGKIEIEDIKVIPPNDLSAGG [r13_37_TrROS],1.16 ± 0.28 kcal/mol,1.5 ± 0.12 kcal/mol,0.67 ± 0.12 kcal/mol
SAGGWIWIPPDDPEDAKEWARELVLMFANHMKEQGQEDMTVDVDIHVWDPKDGNWYRIPVEFRVKPDSAGGS [r8_163_TrROS],2.19 ± 0.13 kcal/mol,2.31 ± 0.12 kcal/mol,1.97 ± 0.044 kcal/mol
SAGGWRYILRQIREAAKNGEEVTINFPPGMNPSFLLSWIRKENGAEVKPITVKPNPNGYGTINIKVKSAGGS [r16_318_TrROS],1.8 ± 0.073 kcal/mol,2.02 ± 0.057 kcal/mol,1.39 ± 0.054 kcal/mol
SAGGWTIREILEKNPNLREFAKEGWTIEIYYPNGKSGRVKIKEGSADDILDDINKNFPGPVEISITKSAGGS [r16_655_TrROS],0.573 ± 0.14 kcal/mol,0.437 ± 0.23 kcal/mol,0.659 ± 0.072 kcal/mol
SAGGYELELVFRFKLELKVGDGTLSFDLDLVIRIPLEPPAVPIGVEVKEDGSLVLTYPNGLKAEIPLSAGGS [r16_136_TrMRF],3.93 ± 0.087 kcal/mol,4.21 ± 0.06 kcal/mol,3.32 ± 0.14 kcal/mol
SAGGYVTSPMSPEIEAKAKEAGKTIDEAKELVIPVNDGGKFRTVKVTFYPETGTVAFYYEDTGEWSNLLSAG [r5_545_JUSTAS],0.957 ± 0.22 kcal/mol,1.05 ± 0.19 kcal/mol,0.499 ± 0.12 kcal/mol
SAGHPWMFRAKVEYDDGKPVGEREINIPGMPIDDIASDLFNEPGLRKVKIEFYWMDGEPQEIEIPVKPSAGG [r19_269_TrROS],0.689 ± 0.21 kcal/mol,0.457 ± 0.28 kcal/mol,0.801 ± 0.097 kcal/mol
SAGIKEIAKKLGFPIHSVKPTEPDPENGKLKWTVIFRNEKNNYYVIEIDLDDPEKIEIERFPPGEEIPSAGG [r19_72_TrROS],1.39 ± 0.21 kcal/mol,1.61 ± 0.12 kcal/mol,1.21 ± 0.13 kcal/mol
